Measurements: paper doi:10.1101/772293
Like-named read-outs stand apart in the source and are kept apart here.

Key:
angiotensin AT1 receptor [1] = target: angiotensin AT1 receptor (UniProt P30556); test: genetically encoded conformation-sensitive fluorescent biosensor
angiotensin AT1 receptor [2] = target: angiotensin AT1 receptor (UniProt P30556); test: as above; remark: listed apart in the source

UniProt P30556, sequence (P30556 whole entry): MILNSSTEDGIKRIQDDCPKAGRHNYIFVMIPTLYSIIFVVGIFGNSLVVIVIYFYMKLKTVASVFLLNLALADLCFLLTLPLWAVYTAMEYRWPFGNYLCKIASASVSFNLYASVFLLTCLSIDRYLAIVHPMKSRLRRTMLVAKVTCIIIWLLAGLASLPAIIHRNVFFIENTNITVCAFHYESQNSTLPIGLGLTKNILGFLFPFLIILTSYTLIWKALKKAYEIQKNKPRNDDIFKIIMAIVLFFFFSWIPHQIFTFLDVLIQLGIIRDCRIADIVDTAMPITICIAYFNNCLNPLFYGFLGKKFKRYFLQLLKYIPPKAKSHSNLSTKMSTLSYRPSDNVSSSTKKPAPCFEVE

Substance: β-arrestin2 sensor (β-arrestin2 inserted into the seventh stave of mNeonGreen) (from UniProt P32121 1-409)
- t1/2 of arrestin recruitment (0.693/kobs) with 32 uM AngII (angiotensin AT1 receptor [1]): 44 s
- t1/2 of arrestin recruitment (0.693/kobs) with 32 uM AngII (angiotensin AT1 receptor [2]): 45 s
- t1/2 of arrestin recruitment (0.693/kobs) with 32 uM SII (angiotensin AT1 receptor [2]): 84
